Measured values: the DeepSol protein solubility set

Assay: soluble on expression in E. coli; label from the status in PepcDB or PDB records

Sequence | soluble on expression in E. coli
MGSDKIHHHHHHMDSNIFISTYHIRYGQEDSSMNKLKILFVLFTNIKTGAGTEKSLYYYLKYADISKFDITVLQTNLMPGGQRLSDSDLETIKNKAKFIEIKDYRGLLGFIRNKYLSYLLNLFILPMLLKICKYTVYHKKLKQLKDSNVIYLFNNDYSNLFSHKSVVIGSNHCAFDNLDSFSQKLIARLLSLRIILPSITAFHLFPHNVSFKEYFGNKPLILLSNGVDTDLYYPSHSQNLKTKILFVGRLEEVKGILMAIKVYNNIKKMFPVEFVIVGSGSLESEVDKLCASDTNVKHFKHVAENDLANIYRSCDIFLYPTQGDSYALVVLEALSSGLKVVTTVNIYRVYNDFIRFNVIKFADFDEKSLTQALLDIKNTVINKNEIHNYIEKNYSWKKVSENLFNLMYNLAVKN | not soluble
MGSDKIHHHHHHMDSVDLEVLRSSVRWQQEGHRVLLVTVVRTWGSSPRPEGAMLAVRDDGLVVGSVSGGCIEDDLIDRVRRLGITADHPESVKYGISAEEAHRFGLPCGGTIELVTEPLKPASGIAELLDAVENGRLATRTLDMATGTATLGPAEATDGLVFDGNSLLTIHGPRYRMLVIGAGQLSKYLCQIAVGLGFQVTVCDPREEYTETWDIPGVTMVRTMPDDTVTDMKLDERCAVIALTHDPKLDDLALMEALRTRAFYVGALGSRRNNQARRERLKEFDLNDVQLARLHGPVGIFIGSRTPPEIAISILAEVVAAKNHVSLPDILQVEGAKAARELAAGTGSSCDT | not soluble
MGSDKIHHHHHHMDSYSDVKMGEYEPTWRSGMAKSITFIVTEDCQLRCGYCYIIGKNKFNRMSFTIARTAVDYILHNRALFWEDSVIWDFIGGEPLLEIELIDRICDYIKRRMYELDHPWFNSYRFSFSTNGLLYGTEKVQRFIRKNAHHLSISISIDGTRKKHDAQRVFPDGSGSYDAVVKNVPLWLKQFPNASTKATVAHDDLPLLKESVIHLWQLGLKNVTINLVNENIWEPGDDIIYETQLRELADYIVENDLYDTHNCSFFSKSIGKPLDCKTDNGNWCGSGKMLAIDGDGVFYPCVRFAPYSMRYKPARSIGNCFDGLDMNRVRPFLVLNRSMQSPEECIACDVASGCAWCQGNNYDLAATDTIYQRAVYTCAMHKARVRANRYFGEKLADRLGRERPVEAR | not soluble
MGSDKIHHHHHHMDTKQLKQDIIDYAYTIGIDSIGFTTADPFDELKQKLEAYHANGYASGFEESDIALRTEPKLSLPTARSIIAIAVGYPNKLKGAPKSVRGDRRGLFARASWGQDYHTIMRKRLDMLAAFIESKVPDVEIKSMVDTGVLSDRAVAERAGLGFVGRNGFVINPKLGTWTYLGEMLVSIPFEPDDPLLDSCGDCTICVDRCPTSALVGNGQLNSQKCISFLTQTKGYMPDQYRYKIGNRLYGCDTCQQVCPKNRGINTEQDDIILEPEILKPRLVPLLRMSNKEFKQTYGHLAGAWRGKKPIQRNAILALAHFNEVDAIPELKKVATTDERPMIRATAYWAIGQILGEEARDFINANYDQEDAEVQNEMIKGLDTRRE | not soluble
MGSDKIHHHHHHMDTLFKALSDPARRAILDSLRARDGQSLTDLEPQLDMTRFGVMKHLKLLEDAGLIVTKRQGRFKYHYLNPMPLQEMLDRWVAPFLQPQARHLSDLKAKLERSHTMGKPDFMMQTFIRCTQDALWDALTKADQMAAYHFMCNEVRGNASVGNVTEFVLPDGNPMLRQVTTELDPKSRIAATFEPMFMGPDAPASHMVYLIEPQGETCKLTIEHYDMAPGQEGFAEGWARLASSLKSYLETGKAMKGAA | not soluble
MGSDKIHHHHHHMDTQAFKRSLHHSERYNRRGFGRANEVASNLEKAYQSSLIGSIRDNGYVLQHGRLQVKLAEAFGFCWGVERAVAMAYETRRHYPSERIWITNEIIHNPSVNEHLREMDVLFIHAEGGVKDFSCVNDGDVVILPAFGATVQEMELLHERGCHIIDTTCPWVSKVWHTVEKHKKQEFTSIIHGKVKHEETLATSSFAGTYLVVLDLDEAQLVADYILGQGDRAAFMKRFAKACSANFDPDQDLQRLGVANQTTMLKSETEEIGRLFERTMLRKYGPIELNKHFLSFNTICDATEERQQAMFSLVDEPLDLLVVIGGFNSSNTTHLQEIAISRGIRSFHIDTPERIGDNNSIQHKPLGEDLFIESNFLPAGSVSVGITSGASTPDRVVEHVIQKLIDLTSG | not soluble
